No end group written: not given here.
T1: GCY-DLys-N-DArg-DCG (plasmin stable peptide)
T1 sequence: GCYKNRDCG

T2: GCYKNRDCG (plasmin sensitive peptide)
T2 sequence: GCYKNRDCG


Experiments:
[1] = test system: T1, GCY-DLys-N-DArg-DCG (plasmin stable peptide)
[2] = test system: T2, GCYKNRDCG (plasmin sensitive peptide)
[3] = target: receptors that recognize the sequence GRGDSPG; test: cell-based or functional assay

Chain of plasmin (P00747 20-580): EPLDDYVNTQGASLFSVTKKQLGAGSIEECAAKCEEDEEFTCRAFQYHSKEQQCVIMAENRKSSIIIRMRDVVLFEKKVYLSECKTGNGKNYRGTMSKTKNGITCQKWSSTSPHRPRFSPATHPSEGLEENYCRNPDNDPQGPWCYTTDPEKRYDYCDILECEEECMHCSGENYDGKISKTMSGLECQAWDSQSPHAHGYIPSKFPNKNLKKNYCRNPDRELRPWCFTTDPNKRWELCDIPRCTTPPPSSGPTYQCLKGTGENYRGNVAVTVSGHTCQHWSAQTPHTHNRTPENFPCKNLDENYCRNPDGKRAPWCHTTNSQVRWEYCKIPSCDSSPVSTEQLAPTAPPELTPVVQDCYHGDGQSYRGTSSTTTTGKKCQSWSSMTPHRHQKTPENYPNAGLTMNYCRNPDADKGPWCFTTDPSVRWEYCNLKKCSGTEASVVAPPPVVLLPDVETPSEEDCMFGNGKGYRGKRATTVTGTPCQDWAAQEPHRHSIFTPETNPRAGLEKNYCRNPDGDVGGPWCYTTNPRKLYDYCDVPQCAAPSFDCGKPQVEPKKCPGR
Chain of plasmin (P00747 581-810): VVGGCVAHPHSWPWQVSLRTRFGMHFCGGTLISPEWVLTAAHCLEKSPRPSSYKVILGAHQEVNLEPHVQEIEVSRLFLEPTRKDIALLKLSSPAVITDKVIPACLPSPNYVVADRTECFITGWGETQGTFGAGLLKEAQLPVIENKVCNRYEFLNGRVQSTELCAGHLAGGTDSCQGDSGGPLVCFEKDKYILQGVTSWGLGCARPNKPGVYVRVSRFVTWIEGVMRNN

Molecule | degradation of PEG-triacrylate/peptide gel by 0.2 units of plasmin in 200 microliters, 37 C [1] | degradation of PEG-triacrylate/peptide gel by 0.2 units of plasmin in 200 microliters, 37 C [2] | peptide degradation by plasmin, analytical C18 HPLC, plasmin at 1/1000 the peptide concentration, 37 C [2] | adhesion and spreading of human foreskin fibroblasts on conjugate addition PEG gels carrying the peptide on one of every 12 acrylates, 6 hours after seeding [3]
plasmin | The DLys, DArg configuration gel has not been shown to degrade by plasminolysis. | The L-Lys, L-Arg configuration of the peptide was readily degraded by the enzyme. In one case, after 6 hours no gel remained. | most of the GCYKNRDCG peptide was degraded in approximately one hour at 37 °C | 
GC(PEG acrylate)GYGRGDSPG [… (RGD-containing adhesion peptide)] |  |  |  | 50%
